Assay [1] concerns the target HLA-B27 homodimer (B27 H chain dimer, β2m-free) (human). The assay is described as follows: SPR.
In assay [2] the target is LILRB2 on transduced Baf3 cells (UniProt Q8N423). Nature of the assay: flow cytometry on cells. In general terms: A flow cytometer gives signals particle by particle.

In general, Kd refers to the constant that tells how readily two partners part at equilibrium. Low readings indicate a tighter complex, high ones a looser complex. Substance “LILRB2 incorporating the two immunoglobulin-like domains D1 and D2 (domain or fragment)” returned a Kd in assay [1] of 2500 nM.

“HLA-B27 homodimer (B27 H chain dimer, β2m-free) (complex)”: the percent reduction of bound B27 Flu NP heterotrimer tetramer over 1 hour in assay [2] worked out at 43%.

The values are drawn from PMC3622243.
